From patent publication US20210395318A1 (Molecular Partners, published 2021) come the findings set out here.

As usually defined, the Kd is the equilibrium constant for the complex coming apart. A low value points to higher affinity. A word on the koff: it is a measure of how fast the partners let go of each other. Low values mean a long-lived complex, high ones a short-lived complex. What is called kon is the second-order rate constant of association. A high value points to fast association.

This assay addresses T1, cynomolgus FAP (cynomolgus).
T1 chain: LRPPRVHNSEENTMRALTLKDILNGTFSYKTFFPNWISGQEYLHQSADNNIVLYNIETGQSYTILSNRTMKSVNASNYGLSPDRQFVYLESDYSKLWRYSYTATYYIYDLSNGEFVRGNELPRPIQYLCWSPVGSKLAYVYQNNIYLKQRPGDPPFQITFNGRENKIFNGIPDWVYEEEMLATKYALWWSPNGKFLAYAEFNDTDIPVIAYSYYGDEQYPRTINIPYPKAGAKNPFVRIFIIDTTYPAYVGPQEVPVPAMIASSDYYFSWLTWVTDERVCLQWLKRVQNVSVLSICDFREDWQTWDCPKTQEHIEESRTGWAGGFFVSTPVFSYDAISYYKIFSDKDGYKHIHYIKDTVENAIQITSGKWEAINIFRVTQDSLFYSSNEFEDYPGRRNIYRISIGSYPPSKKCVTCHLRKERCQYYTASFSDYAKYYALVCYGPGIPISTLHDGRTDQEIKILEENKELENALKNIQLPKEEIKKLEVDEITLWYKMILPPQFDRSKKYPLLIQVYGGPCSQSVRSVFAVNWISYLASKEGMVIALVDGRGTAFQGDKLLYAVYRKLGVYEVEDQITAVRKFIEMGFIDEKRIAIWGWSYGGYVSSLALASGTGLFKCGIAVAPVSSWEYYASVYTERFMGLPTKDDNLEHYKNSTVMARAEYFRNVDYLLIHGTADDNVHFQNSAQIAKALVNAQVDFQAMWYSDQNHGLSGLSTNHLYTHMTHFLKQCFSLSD
As to the kind of experiment: SPR (ProteOn XPR36), FAP immobilized on GLC chip, Protein #5 as analyte, PBST, 1:1 Langmuir. The procedure: All SPR measurements were performed using a ProteOn XPR36 instrument (BioRad) and a running buffer of PBS pH 7.4 containing 0.005% Tween 20® (PBST). The 1:1 Langmuir model was used for the fitting of SPR traces.
ProteOn setup for Protein #5 binding to FAP of different species. hFAP, cynomolgus FAP (cFAP) and mouse FAP (mFAP) were immobilized on a GLC chip (BioRad) in 10 mM Na Acetate buffer pH5.3 to a level of 1200 RU, 800 RU and 2000 RU, respectively. The interaction of FAP and Protein #5 was measured by applying Protein #5 in a serial dilution of […] and 3.13 nM with an association of 120 s and dissociation of 1800 s using a constant flow of 100 μl/min. The targets were regenerated using 10 mM glycine pH 2 and 124 mM H₃PO₄. The signals were double referenced against the PBST treated control lanes.

B1: DARPin Protein #5 (designed binder)
chain: GSDLGKKLLEAARAGQDDEVRELLKAGADVNAKDYFSHTPLHLAARNGHLKIVEVLLKAGADVNAKDFAGKTPLHLAAADGHLEIVEVLLKAGADVNAQDIFGKTPADIAADAGHEDIAEVLQKAAGSPTPTPTTPTPTPTTPTPTPTGSDLGKKLLEAARAGQDDEVRILLAAGADVNAKDVLGWTPLHLAAFEGHLEIVEVLLKAGADVNAKDKKGWTPLQLAARTGHLEIVEVLLKAGADVNAKDHIGATPLHLAAWQGHPEIVEVLLKAGADVNAQDKSGKTPADLAADAGHEDIAEVLQKAAGSPTPTPTTPTPTPTTPTPTPTGSDLGKKLLQAARAGQLDEVRELLKAGADVNAKDTWGFTPLHIAAESGHLEIVEVLLKAGADVNAKDVQGRTPLHIAAHSGHLEIVEVLLKAGADVNAKDFRGWTPLHLAAWSGHLEIVEILLKAGADVNAQDKSGKTPADLAARAGHQDIAEVLQKAAGSPTPTPTTPTPTPTTPTPTPTGSDLGKKLLQAARAGQLDEVRELLKAGADVNAKDTWGFTPLHIAAESGHLEIVEVLLKAGADVNAKDVQGRTPLHIAAHSGHLEIVEVLLKAGADVNAKDFRGWTPLHLAAWSGHLEIVEILLKAGADVNAQDKSGKTPADLAARAGHQDIAEVLQKAA
notes: also called SMA136; Molecule No. 1
Molecule B1 yielded a Kd of 0.339 nM, a koff of 0.000146 s⁻¹ and a kon of 432000 M⁻¹ s⁻¹.
